Columns and labels:
^FLAGSwi4-Swi6 complex [1] = biological target: T1, ^FLAGSwi4-Swi6 complex (S. cerevisiae, UniProt P25302 1-1093; P09959 1-803); test: co-IP; recombinant ^FLAGSwi4-Swi6-^GSTWhi5 complexes (0.1 ug ^GSTWhi5) incubated with 0.1, 0.2 and 0.5 ug His6-tagged Nrs1 (4, 8 and 20 Nrs1:Whi5 molar ratio), captured on anti-FLAG beads; blots with anti-GST and anti-HIS6; settings: both partners purified
T1 construct: Swi4, S. cerevisiae; Swi6, S. cerevisiae; also called SBF; recombinant SBF; source: baculovirus-infected insect cells, purified (anti-FLAG M2 resin, eluted with FLAG peptide)

^FLAGSwi4-Swi6 complex [2] = biological target: T1, ^FLAGSwi4-Swi6 complex; test: pull-down; recombinant ^HAWhi5 or ^GSTNrs1 titrated into preformed ^FLAGSwi4-Swi6-^GSTNrs1 or ^FLAGSwi4-Swi6-^HAWhi5 complexes immobilised on anti-FLAG resin; immunoblot and Coomassie; settings: both partners purified

T1 sequence (P25302 whole entry, chain 1 of 2): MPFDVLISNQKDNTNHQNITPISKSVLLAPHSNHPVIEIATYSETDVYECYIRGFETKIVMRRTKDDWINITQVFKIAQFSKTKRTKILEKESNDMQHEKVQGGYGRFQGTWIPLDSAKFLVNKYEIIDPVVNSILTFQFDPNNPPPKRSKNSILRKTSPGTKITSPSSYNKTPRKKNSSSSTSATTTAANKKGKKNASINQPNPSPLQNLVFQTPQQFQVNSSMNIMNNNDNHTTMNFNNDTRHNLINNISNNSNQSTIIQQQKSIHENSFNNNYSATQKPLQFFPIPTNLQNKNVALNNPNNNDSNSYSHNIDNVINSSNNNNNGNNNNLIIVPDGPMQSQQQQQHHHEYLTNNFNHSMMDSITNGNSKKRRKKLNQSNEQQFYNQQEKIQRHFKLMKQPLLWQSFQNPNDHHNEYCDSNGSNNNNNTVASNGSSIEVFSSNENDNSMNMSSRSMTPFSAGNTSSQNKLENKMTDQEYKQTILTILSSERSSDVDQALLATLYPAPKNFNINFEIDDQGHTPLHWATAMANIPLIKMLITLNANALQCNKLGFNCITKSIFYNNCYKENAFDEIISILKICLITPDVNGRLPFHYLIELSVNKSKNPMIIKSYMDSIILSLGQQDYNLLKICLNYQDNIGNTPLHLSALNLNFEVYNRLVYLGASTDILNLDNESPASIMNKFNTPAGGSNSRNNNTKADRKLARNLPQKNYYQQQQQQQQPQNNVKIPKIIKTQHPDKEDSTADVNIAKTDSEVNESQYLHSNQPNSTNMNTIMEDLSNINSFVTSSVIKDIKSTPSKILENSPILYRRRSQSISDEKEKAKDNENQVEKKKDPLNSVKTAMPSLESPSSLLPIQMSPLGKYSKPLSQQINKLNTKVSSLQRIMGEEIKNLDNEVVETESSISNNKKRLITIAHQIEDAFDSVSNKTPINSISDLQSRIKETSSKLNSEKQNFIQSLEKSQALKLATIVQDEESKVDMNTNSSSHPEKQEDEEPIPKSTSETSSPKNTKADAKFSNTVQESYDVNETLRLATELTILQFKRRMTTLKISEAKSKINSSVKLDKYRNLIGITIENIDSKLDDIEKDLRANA
T1 sequence (P09959 whole entry, chain 2 of 2): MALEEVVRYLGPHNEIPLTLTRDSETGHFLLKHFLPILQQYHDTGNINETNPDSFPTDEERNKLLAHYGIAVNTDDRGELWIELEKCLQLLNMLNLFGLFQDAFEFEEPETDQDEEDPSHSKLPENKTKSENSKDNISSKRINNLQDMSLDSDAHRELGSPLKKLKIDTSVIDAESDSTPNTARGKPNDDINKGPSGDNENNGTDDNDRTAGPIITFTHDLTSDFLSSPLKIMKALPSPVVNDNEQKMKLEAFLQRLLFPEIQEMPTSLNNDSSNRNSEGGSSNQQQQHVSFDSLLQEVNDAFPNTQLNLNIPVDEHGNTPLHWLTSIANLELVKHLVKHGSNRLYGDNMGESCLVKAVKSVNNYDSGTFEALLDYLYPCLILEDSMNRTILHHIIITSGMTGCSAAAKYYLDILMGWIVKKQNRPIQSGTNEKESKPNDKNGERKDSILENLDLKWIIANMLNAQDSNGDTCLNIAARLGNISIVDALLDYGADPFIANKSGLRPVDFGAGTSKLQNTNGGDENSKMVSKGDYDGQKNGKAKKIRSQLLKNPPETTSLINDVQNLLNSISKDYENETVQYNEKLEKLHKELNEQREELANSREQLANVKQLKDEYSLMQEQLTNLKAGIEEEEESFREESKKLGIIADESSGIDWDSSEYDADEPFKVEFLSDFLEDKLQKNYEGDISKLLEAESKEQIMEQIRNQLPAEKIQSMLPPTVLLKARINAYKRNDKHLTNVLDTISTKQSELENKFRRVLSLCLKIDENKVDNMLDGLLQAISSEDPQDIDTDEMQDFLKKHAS

binding result (^FLAGSwi4-Swi6 complex [1]) | binding result (^FLAGSwi4-Swi6 complex [2]) | Binder
binds |  | ^GSTWhi5 (natural protein, S. cerevisiae, UniProt Q12416 1-295, looked up, Whi5, S. cerevisiae; also called recombinant GST-tagged Whi5; source: recombinant) MSLRTPKRSRTSDEQEQEQEQEQVQNPDTHVNNEHQQRPGPTTLLSTPVRLKNGFGTPSPPSPPGITKSITKSRRRPSTTSLQGIFMSPVNKRRVGITAHGRVYDHNDDGHESESEDDENEEENENQKKYDGHVSMPLLPPTTPKSRRSEVFLSPSPRLRSPPTAARRSTGERPIREISHTLRTRLNYALVKLQNGWTDKTLPELETELAPAVQTPPRRYHNRFPDSADAGTSAHTAFLQALGGHPPREEATAVETLMLLSSPTKKQQHRPVPATSAGEPTDETEPESDTEVETS
 | binds | recombinant ^HAWhi5 (natural protein, S. cerevisiae, UniProt Q12416 1-295, looked up, Whi5, S. cerevisiae; source: recombinant) MSLRTPKRSRTSDEQEQEQEQEQVQNPDTHVNNEHQQRPGPTTLLSTPVRLKNGFGTPSPPSPPGITKSITKSRRRPSTTSLQGIFMSPVNKRRVGITAHGRVYDHNDDGHESESEDDENEEENENQKKYDGHVSMPLLPPTTPKSRRSEVFLSPSPRLRSPPTAARRSTGERPIREISHTLRTRLNYALVKLQNGWTDKTLPELETELAPAVQTPPRRYHNRFPDSADAGTSAHTAFLQALGGHPPREEATAVETLMLLSSPTKKQQHRPVPATSAGEPTDETEPESDTEVETS
